Here are results for two substances from US20230038866.

Where two headings read alike, the source gives them in different places.

Data set [1] deals with membrane-bound immunoglobulin heavy mu chain (B-cell receptor, IgM) on Ramos lymphoma cells (Homo sapiens) (UniProt P01871). The settings on record: confocal staining of Ramos xenograft brain slices, 1.0 uM, 10 min on ice, 6 mM MgCl2, 1.2 mM CaCl2, PBS, yeast tRNA; U251 glioma 0.81% and normal brain 0.80% ….
Data set [2] shares this target. The settings on record: confocal staining of Ramos xenograft brain slices, 1.0 uM, 10 min; target not purified.

UniProt P01871, sequence (P01871 1-450): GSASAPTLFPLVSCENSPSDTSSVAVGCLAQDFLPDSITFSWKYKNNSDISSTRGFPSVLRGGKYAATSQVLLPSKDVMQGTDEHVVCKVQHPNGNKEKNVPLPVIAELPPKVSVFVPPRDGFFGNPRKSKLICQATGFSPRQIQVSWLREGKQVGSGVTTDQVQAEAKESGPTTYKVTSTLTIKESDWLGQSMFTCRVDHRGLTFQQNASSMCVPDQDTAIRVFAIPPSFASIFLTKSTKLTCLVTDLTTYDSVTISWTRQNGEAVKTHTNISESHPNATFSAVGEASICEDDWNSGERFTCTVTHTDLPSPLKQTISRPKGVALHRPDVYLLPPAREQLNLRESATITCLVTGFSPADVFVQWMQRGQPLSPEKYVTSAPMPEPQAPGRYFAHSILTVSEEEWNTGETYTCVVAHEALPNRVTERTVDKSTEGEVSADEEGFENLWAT

In data set [1], “AGGAGGATAGTTCGGTGGCTGTTCAGGGTCTCCTCCT [TD05-488]” gave a binding (% cells labeled) of 76.7.

In data set [2], nonspecific Alexa Fluor 488 aptamer gave a binding (% cells labeled) of 2.71.
